Response (absorbance 450) and percentage of internalized HLA-E that reappeared on the cell surface within 1 h (recycling assay, HEK293T, peptide pulsing 50 µM) data for five substances are collected here from article PMC12582296.

The target in assay [1] is adaptor protein 2 (AP-2) complex. As to the kind of experiment: ELISA-based peptide binding assay. To be noted: read off a plot. In general terms: ELISA stands for enzyme-linked immunosorbent assay.
The target in assay [2] is HLA-E (wild type, EGFP at the C-terminus) (human).

On to “CD1b cytoplasmic tail peptide (CD1) (from UniProt P29016) Y5A”, for which the response (absorbance 450) in assay [1] (parent: est. 0.86) amounted to 0.64.

Regarding “HLA-E cytoplasmic tail peptide (E) (from UniProt P13747) K310R; K322Q; W325S”, the response (absorbance 450) in assay [1] (parent: est. 1.5) came out at 0.83.

Mtb44 peptide showed a percentage of internalized HLA-E that reappeared on the cell surface within 1 h (recycling assay, HEK293T, peptide pulsing 50 µM) in assay [2] of 18%.

Consider RL9 peptide, for which the percentage of internalized HLA-E that reappeared on the cell surface within 1 h (recycling assay, HEK293T, peptide pulsing 50 µM) in assay [2] was 15%.

In assay [2], VL9 peptide gave a percentage of internalized HLA-E that reappeared on the cell surface within 1 h (recycling assay, HEK293T, peptide pulsing 50 µM) of 25%.
